# Measurements reported in paper PMC4660579.
# Biological target: Drosophila melanogaster glutathione transferase epsilon 6 (Drosophila melanogaster)
# Experiment: crystal structure; DmGSTE6 at 15-20 mg/ml with 10 mM GSH, 20% PEG3350, 0.2 M sodium thiocyanate, sitting drop vapour diffusion at 288 K; 1.72 Å; homodimer
substance,measurement,value
Drosophila melanogaster glutathione transferase epsilon 6 (enzyme),stoichiometry N,2
